According to patent US20240383994A1:

Columns and labels:
[1] = molecular target: human CD40 (hCD40), full length, on cells (human) (UniProt P25942); assay: cell-based or functional assay
[2] = molecular target: cynoCD40-mFc (monkey (cyno)); assay: flow cytometry, blocking of cynoCD40-mFc (2 µg/mL) binding to CHO-K1-cynoCD40L cells
Chain of cynoCD40-mFc (monkey (cyno)) (chain, as listed by the source limits assumed, form in doubt): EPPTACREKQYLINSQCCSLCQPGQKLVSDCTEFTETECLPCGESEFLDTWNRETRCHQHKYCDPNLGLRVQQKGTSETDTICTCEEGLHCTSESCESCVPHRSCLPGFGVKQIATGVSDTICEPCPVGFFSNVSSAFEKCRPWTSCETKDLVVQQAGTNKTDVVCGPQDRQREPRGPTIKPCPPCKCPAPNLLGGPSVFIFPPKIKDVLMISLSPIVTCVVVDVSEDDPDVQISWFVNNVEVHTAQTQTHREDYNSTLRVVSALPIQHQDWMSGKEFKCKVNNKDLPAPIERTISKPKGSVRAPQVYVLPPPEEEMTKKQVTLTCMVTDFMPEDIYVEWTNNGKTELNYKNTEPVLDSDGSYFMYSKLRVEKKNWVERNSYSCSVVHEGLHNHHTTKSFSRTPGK

Chain of human CD40 (hCD40), full length, on cells (human) (P25942 21-277 limits assumed): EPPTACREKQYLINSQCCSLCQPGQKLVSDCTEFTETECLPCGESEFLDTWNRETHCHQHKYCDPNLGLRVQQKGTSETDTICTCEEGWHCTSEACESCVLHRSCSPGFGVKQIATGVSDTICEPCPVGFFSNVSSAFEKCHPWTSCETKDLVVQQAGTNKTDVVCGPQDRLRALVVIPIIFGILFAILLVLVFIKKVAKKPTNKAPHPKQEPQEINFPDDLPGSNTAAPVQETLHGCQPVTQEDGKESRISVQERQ

| Inhibition, % of Ramos cell apoptosis at 0.064 ng/L (so in the source) [1] | Inhibition, % of Ramos cell apoptosis at 0.32 ng/L (so in the source) [1] | Inhibition, % of Ramos cell apoptosis at 1.6 ng/L (so in the source) [1] | Inhibition, % of Ramos cell apoptosis at 8 ng/L (so in the source) [1] | Inhibition, % of Ramos cell apoptosis at 40 ng/L (so in the source) [1] | Inhibition, % of Ramos cell apoptosis at 200 ng/L (so in the source) [1] | Inhibition, % of Ramos cell apoptosis at 1000 ng/L (so in the source) [1] | IC50 [2] | Substance |
| --- | --- | --- | --- | --- | --- | --- | --- | --- |
| -12% | -9% | -10% | 0% | -20% | -6% | -3% | – | IgG4 isotype control antibody |
| – | – | – | – | – | – | – | 24.1 nM | Iscalimab (CFZ533) (antibody) |
